Results: article PMC7549839, “Posttranslational insertion of small membrane proteins by the bacterial signal recognition particle” (PLoS Biology, 2020)

Key:
[1] = biological target: the molecule itself; experiment: SDS-resistant dimer on SDS-PAGE; YohPHis expressed in vivo; whole cells or cell fractions (INV), Tricine-SDS-PAGE, western blot with anti-His antibodies
[2] = biological target: the molecule itself; experiment: SDS-resistant dimer on SDS-PAGE; in vivo expression, 35S pulse-chase labelling with rifampicin; whole cells or fractions TCA precipitated, Tricine-SDS-PAGE, autoradiography

Protein	stoichiometry N [1]	stoichiometry N [2]
MKIILWAVLIIFLIGLLVVTGVFKMIF (natural protein, E. coli, UniProt C1P609 1-27, looked up, YohP, small membrane protein of E. coli, 27 amino acids; also called YohP_(His6); source: E. coli, expressed in vivo from pBad24 (arabinose) or pET19b (IPTG); whole cells TCA precipitated or cell fractions (INV); not shown: His6, C-terminal, kept) [His-tagged YohP (YohPHis)]	2	
MKIILWAVLIIFLIGLLVVTGVFKMIF (natural protein, E. coli, UniProt C1P609 1-27, looked up, YohP, small membrane protein of E. coli, 27 amino acids; also called nontagged YohP; source: E. coli C43(DE3) with pET19b-YohP, expressed in vivo, pulse-labelled with 35S methionine/cysteine; whole cells or cell fractions) [YohP (nontagged)]		2
